Measurements as given in patent JP2022109630A.

How the values were obtained:
Experiment in all cases: ELISA, immobilised recombinant L7/L12 (10 ng/mL), antibody 10 ug/mL
[1] = target: レジオネラ・ニューモフィラ(LP)のリボソームタンパク質L7/L12 (レジオネラ・ニューモフィラ (Legionella pneumophila))
[2] = target: カンピロバクター・ジェジュニ(CJ)のリボソームタンパク質L7/L12 (カンピロバクター・ジェジュニ (Campylobacter jejuni))
[3] = target: クラミジア・トラコマチス(CT)のリボソームタンパク質L7/L12 (クラミジア・トラコマチス (Chlamydia trachomatis))
[4] = target: クレブシエラ・ニューモニエ(KP)のリボソームタンパク質L7/L12 (クレブシエラ・ニューモニエ (Klebsiella pneumoniae))
[5] = target: サルモネラ菌(SE)のリボソームタンパク質L7/L12 (サルモネラ菌 (Salmonella enteritidis))
[6] = target: モラキセラ菌(MC)のリボソームタンパク質L7/L12 (モラキセラ菌 (Moraxella catarrhalis))
[7] = target: リステリア・モノサイトゲネス(LM)のリボソームタンパク質L7/L12 (リステリア・モノサイトゲネス (Listeria monocytogenes))
[8] = target: 淋菌(NG)のリボソームタンパク質L7/L12 (淋菌 (Neisseria gonorrhoeae))
[9] = target: 溶連菌(SPY)のリボソームタンパク質L7/L12 (溶連菌 (Streptococcus pyogenes))
[10] = target: 百日咳菌(BP)のリボソームタンパク質L7/L12 (百日咳菌 (Bordetella pertussis))
[11] = target: 緑膿菌(PA)のリボソームタンパク質L7/L12 (緑膿菌 (Pseudomonas aeruginosa))
[12] = target: 肺炎クラミジア(CP)のリボソームタンパク質L7/L12 (肺炎クラミジア (Chlamydia pneumoniae))
[13] = target: 肺炎マイコプラズマ(MP)のリボソームタンパク質L7/L12 (肺炎マイコプラズマ (Mycoplasma pneumoniae))
[14] = target: 肺炎球菌(SP)のリボソームタンパク質L7/L12 (肺炎球菌 (Streptococcus pneumoniae))
[15] = target: 髄膜炎菌(NM)のリボソームタンパク質L7/L12 (髄膜炎菌 (Neisseria meningitidis))
[16] = target: 黄色ブドウ球菌(SA)のリボソームタンパク質L7/L12 (黄色ブドウ球菌 (Staphylococcus aureus))

Measured: absorbance at 450 nm (absorbance (450 nm))

B1: 汎用性抗体A(PA51B2) (antibody, V domains shown)
VH: QVQLQQPGSVLVRPGASVKLSCKPSGYTFTGSWMHWTKQRPGQGLEWIGEIHPYSGNTNYNEKFRVKATLTVDTSSSTTYVDLSSLTSDDSAVYYCASGDFDAGFTYWGQGTLVTVSA
VL: DIVLTQSPASLAVSLGRRATISCKASQSVDYDGDSYMNWYQQKPGQPPKLLIYVASNLESGIPARFSGSGSGTDFTLNIHPVEEEDAATYYCQQTNEDPFTFGAGTKLELK
> 0.3: [1]

B2: 汎用性抗体C(CP141A190.1) (antibody, V domains shown)
VH: QVQLQQPGAELVKPGASVKLSCKTSGYNFTSNWIHWVKQRPGQGLEWIGEINPSNGRANYNEKFKNKATLTVDKSSSTAFMHLSSLTSEDSAVYFCSRGDFDEGFTYWGQGTLVTVSA
VL: QIVLTQSPAIMSASLGERVTMTCTASSNVNSDYLHWYQQKPGSSPRLWIYTTSNLASGVPTRFSGNGSGTSYSLTISSMEAEDAATYYCHQYHRSPRTFGGGTKLEIK
> 0.3: [1]

B3: 汎用性抗体B(LP54A3) (antibody, V domains shown)
VH: EVQLQQSGAELVKPGASVRLSCSASGFNIKDTYMHWMRQRPEQGLEWIGRIDPANGNAKYDPKFQVKATITADTSSNTASLQFSSLTSEDTAVYFCASESLDDMYYFDYWGQGTTLTVSS
VL: DIVMTQSQKFMSTSVGDRVSVTCKASQNVGVNVAWYQQKPGQSPKALIYSASYRYSGVPDRFTGSGSGTDFTLTISNVQSEDLAEYFCQQYHSYLYTFGGGTKLEIK
> 0.3: all assays above
